{"source": "patent CN112574297A", "binders": {"B1": {"name": "抗禽流感H7N9神经氨酸酶抗原的单克隆抗体D3 (antibody, V domains shown)", "VH": "IQVKLQESGPELVKPGASVKISCKASGYSFTGYYMHWVKQSHVKSLQWIGRINPYNGATSYNQNFKDKASLTVDKSSSTAYMELHSLTSEDSAVYYCARSGNYAMDYWGQGTTVTVSS", "VL": "DIELTQSPASLAVSLGQRATISYRASKSVSTSGYSYMHWNQQKPGQPPRLLIYLVSNLESGVPARFSGSGSGTDFTLNIHPVEEEDAATYYCQHIRELTRSEGGPSSRSN"}}, "molecular_target": "H7N9病毒的神经氨酸酶(NA) (avian influenza virus H7N9)", "assay": "cell-based or functional assay", "data": [{"binder": "B1", "values": [{"measurement": "NA活性抑制IC50 (酶联凝集素法 ELLA)", "value": 5.22, "unit": "µg/mL"}]}]}
